Each block holds one compound with its values, some of them ahead of it.
What was measured:
[1] = biological target: Actinomyces procaprae Crn4a H15A variant (Actinomyces procaprae); test: crystal structure; Crn4a H15A at 11 mg/mL with 1.2 molar excess of cA6, sitting drop at 293 K, 23.8% PEG 3350, 0.2 M magnesium chloride, 0.1 M Bis-Tris pH 5.5; 1.44 Å
[2] = biological target: T1, Crn4b (Hyphomicrobiales bacterium, UniProt A0ACM8DFW0); test: HPLC ring nuclease assay; assay type: biochemical; settings: pH 7.5, 250 mM NaCl, 1 mM EDTA, 37 C
T1 construct: synthetic codon-optimised gene, pEhisV5TEV, E. coli C43(DE3); His tag removed by TEV; homodimer
T1 sequence (A0ACM8DFW0 5-128): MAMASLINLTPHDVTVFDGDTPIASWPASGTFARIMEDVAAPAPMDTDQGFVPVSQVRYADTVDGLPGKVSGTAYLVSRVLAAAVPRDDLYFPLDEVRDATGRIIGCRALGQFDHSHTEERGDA

[3] = biological target: T2, Crn4a (Actinomyces procaprae, UniProt Z9F5G1FLT2); test: X-ray co-crystal structure, […] A; assay type: binding; settings: active site at dimer interface, one cA6 per dimer; two Mg2+; pH 5.5; inactive variant
T2 construct: synthetic codon-optimised gene, pEhisV5TEV, E. coli C43(DE3); His tag removed by TEV; homodimer, one cA6 per dimer at the dimer interface
T2 sequence (Z9F5G1FLT2 1-149): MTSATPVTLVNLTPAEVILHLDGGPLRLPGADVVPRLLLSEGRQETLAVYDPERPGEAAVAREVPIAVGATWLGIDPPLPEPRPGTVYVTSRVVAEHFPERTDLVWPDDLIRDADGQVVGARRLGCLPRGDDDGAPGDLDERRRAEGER

[4] = biological target: Actinomyces procaprae Crn4a (CRISPR ring nuclease 4, subfamily a), wild type (Actinomyces procaprae); test: crystal structure; apo Crn4a at 13 mg/mL, sitting drop at 293 K, 0.1 M sodium acetate pH 4.5, 22% v/v PEG Smear Broad; 2.34 Å
[5] = biological target: Hyphomicrobiales bacterium Crn4b (CRISPR ring nuclease 4, subfamily b), wild type (Hyphomicrobiales bacterium); test: crystal structure; apo Crn4b at 15 mg/mL, sitting drop at 293 K, 20% PEG 6000, 10% ethylene glycol, 0.1 M calcium chloride; 1.09 Å

Compound: Actinomyces procaprae Crn4a H15A variant (enzyme)
- stoichiometry N [1]: 2

Compound: Nc1ncnc2c1ncn2[C@@H]1O[C@@H]2COP(=O)(O)O[C@H]3[C@@H](O)[C@H](n4cnc5c(N)ncnc54)O[C@@H]3COP(=O)(O)O[C@H]3[C@@H](O)[C@H](n4cnc5c(N)ncnc54)O[C@@H]3COP(=O)(O)O[C@H]3[C@@H](O)[C@H](n4cnc5c(N)ncnc54)O[C@@H]3COP(=O)(O)O[C@H]2[C@H]1O [cA4, cyclic tetra-adenylate]
- HPLC ring nuclease assay ([2]; sequential cleavage via A4>P): Crn4b degraded cA4 and cA3 but was inactive against cA6

Compound: Nc1ncnc2c1ncn2[C@@H]1O[C@@H]2COP(=O)(O)O[C@H]3[C@@H](O)[C@H](n4cnc5c(N)ncnc54)O[C@@H]3COP(=O)(O)O[C@H]3[C@@H](O)[C@H](n4cnc5c(N)ncnc54)O[C@@H]3COP(=O)(O)O[C@H]3[C@@H](O)[C@H](n4cnc5c(N)ncnc54)O[C@@H]3COP(=O)(O)O[C@H]3[C@@H](O)[C@H](n4cnc5c(N)ncnc54)O[C@@H]3COP(=O)(O)O[C@H]3[C@@H](O)[C@H](n4cnc5c(N)ncnc54)O[C@@H]3COP(=O)(O)O[C@H]2[C@H]1O [cA6, cyclic hexa-adenylate]
- X-ray co-crystal structure, 1.44 A [3]: The structure of Crn4a in complex with cA6 shows the ligand binds at the dimer interface

Compound: Nc1ncnc2c1ncn2[C@@H]1O[C@@H]2COP(=O)(O)O[C@H]3[C@@H](O)[C@H](n4cnc5c(N)ncnc54)O[C@@H]3COP(=O)(O)O[C@H]3[C@@H](O)[C@H](n4cnc5c(N)ncnc54)O[C@@H]3COP(=O)(O)O[C@H]2[C@H]1O [cA3]
- HPLC ring nuclease assay ([2]; intermediate A3>P): Crn4b degraded cA4 and cA3 but was inactive against cA6

- stoichiometry N [4]: 2
Compound: Actinomyces procaprae Crn4a (CRISPR ring nuclease 4, subfamily a), wild type (enzyme)

- stoichiometry N [5]: 2
Compound: Hyphomicrobiales bacterium Crn4b (CRISPR ring nuclease 4, subfamily b), wild type (enzyme)
